Experimental data as given in patent publication US20110034399A1, “Liquid and Freeze Dried Formulations” (IPSEN PHARMA S.A.S., priority 2008, published 2011).

Experiment: Formulation stability of lyophilisate form (HPLC content and purity, pH) on storage
Type: physicochemical
Description: Stabilities measurements were performed by means of High Performance Liquid Chromatographic (HPLC) method. The HPLC system a HPLC Waters Alliance 2695 completed by detection system 2487 Dual λ Absorbance Detector, the column used was a C18, 250×4.6 mm. All details concerning instrumental conditions are gathered in table 6. Elution conditions are gathered in table 7. Two pharmaceutical forms were studied in parallel for stability assays over six months at +5° C. and +25° C./60% RH (relative humidity) and +40° C./75% RH. Measurements were carried out in parallel with (in either wfi, or 5% dextrose as solvent) and a lyophilisate (drug substance on its own) or as second variant of formulations with an additional bulking agents such as mannitol, glycine and trehalose) in WFI. […] C (% initial) represents the content expressed in percentage at the moment T with regard to the content at the moment Tzero. […] In table 7 are gathered the elution program, the ratio of each eluant (mobile phase) used for measurement of formulation stabilities. […] Thereafter 20 ml of acetic acid 0.1 N were added under shaking by means of a vortex and if required additionally dissolved in ultrasonic bath in order to obtain a total dissolution. Weight of brut BI[…] 760 was calculated by means of the following relation: […]

Q: For CCCN1CC(CSCC(=O)N[C@H](CCCCNC(=O)CSC[C@@H]2C[C@@H]3c4cccc5[nH]cc(c45)C[C@H]3N(CCC)C2)C(=O)N[C@H]2CSSC[C@@H](C(=O)N[C@H](C(N)=O)[C@@H](C)O)NC(=O)[C@H](CC)NC(=O)[C@H](CCCCN)NC(=O)[C@@H](Cc3c[nH]c4ccccc34)NC(=O)[C@H](Cc3ccc(O)cc3)NC2=O)C[C@@H]2c3cccc4[nH]cc(c34)C[C@H]21 (stereo partly drawn) [BIM23A760, Dop2-DLys(Dop2)-c(Cys-Tyr-DTrp-Lys-Abu-Cys)-Thr-NH2], which “C (% initial)” value (+5° C., T3 Months) is on record?
A: Its value is 103.6% initial.

Q: And the “P (% a/a)” value (+5° C., T3 Months)?
A: Its value is 96.10% a/a.

Q: And the pH (+5° C., T3 Months)?
A: The pH was 6.64.

Q: What about the “C (% initial)” value (+5° C., T6 Months) of the same compound?
A: The value was 73.0% initial.

Q: And the “P (% a/a)” value (+5° C., T6 Months)?
A: The value was 96.80% a/a.

Q: What about the pH (+5° C., T6 Months) of the same compound?
A: The pH was 5.81.

Q: And the “C (% initial)” value (+25° C./60% RH, T0)?
A: The value was 100% initial.

Q: And the “P (% a/a)” value (+25° C./60% RH, T0)?
A: Its value is 95.90% a/a.

Q: What about the pH (+25° C./60% RH, T0) of the same compound?
A: Its pH is 6.8.

Q: And the “C (% initial)” value (+25° C./60% RH, T3 Months)?
A: Its value is 98.8% initial.

Q: And the “P (% a/a)” value (+25° C./60% RH, T3 Months)?
A: The value was 93.70% a/a.

Q: And the pH (+25° C./60% RH, T6 Months)?
A: Its pH is 6.63.

Q: And the “C (% initial)” value (+40° C./75% RH, T1 Month)?
A: Its value is 52.0% initial.

Q: And the “P (% a/a)” value (+40° C./75% RH, T1 Month)?
A: The value was 95.9% a/a.

Q: And the “C (% initial)” value (+40° C./75% RH, T3 Months)?
A: The value was 29.0% initial.

Q: What about the “P (% a/a)” value (+40° C./75% RH, T3 Months) of the same compound?
A: The value was 95.5% a/a.

Q: And the pH (+40° C./75% RH, T3 Months)?
A: Its pH is 5.60.

Q: What about the pH (+40° C./75% RH, T6 Months) of the same compound?
A: The pH was 5.62.
